These are literature values, as cited in publication PMC9252436.

pKd: −log10 of the molar value.

The target in this series is CD47 (Homo sapiens) (UniProt Q08722).
UniProt Q08722, sequence (Q08722 19-323): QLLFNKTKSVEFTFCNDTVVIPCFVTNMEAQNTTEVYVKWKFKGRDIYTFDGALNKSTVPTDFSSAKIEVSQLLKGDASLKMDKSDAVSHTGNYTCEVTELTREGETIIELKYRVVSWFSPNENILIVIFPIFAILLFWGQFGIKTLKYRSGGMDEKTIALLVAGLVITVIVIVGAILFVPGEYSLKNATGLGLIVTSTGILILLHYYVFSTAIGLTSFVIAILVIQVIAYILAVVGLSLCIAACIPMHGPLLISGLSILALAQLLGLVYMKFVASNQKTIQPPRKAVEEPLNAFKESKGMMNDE

In general, pKd refers to the Kd on a negative log10 scale, so that one unit is a factor of ten. For SIRPα (from UniProt P78324), the negative-log Kd (pKd) is 7.80.
